This test concerns the target MelA1 (Candidatus Melainabacteria bacterium isolate SJ512). Kind of test: SEC; size-exclusion chromatography of MelA1; column and buffer not told.

As usually defined, the stoichiometry N is the number of molecules, sites or subunits per partner or assembly. For the substance MelA1 (natural protein), the stoichiometry N came out at 2.
